Data from doi:10.1101/847608 (bioRxiv, 2019).

Biological target: the molecule itself
Assay: turbidity

Does SGYDFEREGYS [SGYDFEREGYS peptide (wild type peptide, NP 287-297)] bind?
Result: binds
